Assay results reported in the supplement of paper PMC9112550, “Optimization of the antimicrobial peptide Bac7 by deep mutational scanning” (BMC Biology, 2022).

Each sequence was assayed on Escherichia coli TOP10 (assay: shrunken log2 fold change of peptide-encoding DNA abundance (4.5 h post-induction vs induction); higher = less antimicrobial activity (less host growth inhibition)). Conditions: time post-induction: 4.5 h; library: site-saturation at positions 5, 18, 19, 20.
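Also: peptides expressed intracellularly from a pBAD plasmid library in pooled LB shake-flask culture, induced with 0.3% L-arabinose, DNA abundance read by NGS, three biological replicates, DESeq2 with apeglm shrinkage.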

| Sequence | shrunken log2 fold change |
| --- | --- |
| RRIRQRPPRLPRPRPRPKSEPRP | -0.0211 |
| RRIRFRPPRLPRPRPRPMVTPRP | -0.138 |
| RRIRVRPPRLPRPRPRPDMDPRP | -0.154 |
| RRIRERPPRLPRPRPRPERAPRP | -0.024 |
| RRIRLRPPRLPRPRPRPRGKPRP | 0.0746 |
| RRIRFRPPRLPRPRPRPFLKPRP | -0.145 |
| RRIRFRPPRLPRPRPRPWNFPRP | -0.0389 |
| RRIRHRPPRLPRPRPRPHSRPRP | 0.0183 |
| RRIRPRPPRLPRPRPRPMNFPRP | -0.165 |
| RRIRCRPPRLPRPRPRPIGYPRP | -0.00724 |
| RRIRNRPPRLPRPRPRPRGVPRP | 0.195 |
| RRIRIRPPRLPRPRPRPHMKPRP | -0.809 |
| RRIRQRPPRLPRPRPRPHSFPRP | -0.00144 |
| RRIRCRPPRLPRPRPRPIKTPRP | -0.0653 |
| RRIRHRPPRLPRPRPRPLSPPRP | -0.0711 |
| RRIRPRPPRLPRPRPRPKRHPRP | 0.267 |
| RRIRYRPPRLPRPRPRPQGWPRP | 0.031 |
| RRIRLRPPRLPRPRPRPFYWPRP | 0.228 |
| RRIRTRPPRLPRPRPRPGLDPRP | 0.0222 |
| RRIRFRPPRLPRPRPRPICFPRP | -0.293 |
| RRIRDRPPRLPRPRPRPATQPRP | 0.52 |
| RRIRSRPPRLPRPRPRPMPNPRP | -0.0112 |
| RRIRGRPPRLPRPRPRPEWMPRP | 0.933 |
| RRIRIRPPRLPRPRPRPHALPRP | -0.127 |
| RRIRVRPPRLPRPRPRPWFSPRP | -0.128 |

| Sequence | shrunken log2 fold change |
| --- | --- |
| RRIRIRPPRLPRPRPRPKDIPRP | -1.25 |
| RRIRVRPPRLPRPRPRPVPKPRP | 0.128 |
| RRIRNRPPRLPRPRPRPCVSPRP | 0.0348 |
| RRIRIRPPRLPRPRPRPPVTPRP | -0.287 |
| RRIRTRPPRLPRPRPRPEQLPRP | 0.117 |
| RRIRWRPPRLPRPRPRPVEAPRP | 0.249 |
| RRIRDRPPRLPRPRPRPAYYPRP | -0.947 |
| RRIRFRPPRLPRPRPRPQAIPRP | 0.043 |
| RRIRLRPPRLPRPRPRPGSIPRP | -0.301 |
| RRIRHRPPRLPRPRPRPQKNPRP | -0.3 |
| RRIRHRPPRLPRPRPRPERKPRP | 0.0547 |
| RRIRHRPPRLPRPRPRPRWSPRP | 0.00212 |
| RRIRSRPPRLPRPRPRPVKAPRP | 0.0824 |
| RRIRDRPPRLPRPRPRPACSPRP | 0.386 |
| RRIRMRPPRLPRPRPRPDWQPRP | 0.198 |
| RRIRYRPPRLPRPRPRPTIRPRP | -0.336 |
| RRIRGRPPRLPRPRPRPQANPRP | 0.111 |
| RRIRQRPPRLPRPRPRPASRPRP | -0.124 |
| RRIRERPPRLPRPRPRPKWYPRP | -0.175 |
| RRIRKRPPRLPRPRPRPFKDPRP | -0.0776 |
| RRIRARPPRLPRPRPRPCIPPRP | 2.51 |
| RRIRHRPPRLPRPRPRPFNVPRP | 1.22 |
| RRIRWRPPRLPRPRPRPFRSPRP | -0.128 |
| RRIRDRPPRLPRPRPRPAKKPRP | -0.00565 |
| RRIRARPPRLPRPRPRPIAIPRP | 0.0259 |

| Sequence | shrunken log2 fold change |
| --- | --- |
| RRIRKRPPRLPRPRPRPIRKPRP | 0.092 |
| RRIRVRPPRLPRPRPRPVYSPRP | -0.0974 |
| RRIRTRPPRLPRPRPRPERCPRP | 0.0057 |
| RRIRIRPPRLPRPRPRPTCQPRP | -0.215 |
| RRIRRRPPRLPRPRPRPGLWPRP | 0.622 |
| RRIRPRPPRLPRPRPRPSLHPRP | -0.21 |
| RRIRQRPPRLPRPRPRPYAFPRP | -0.175 |
| RRIRTRPPRLPRPRPRPFPGPRP | -0.21 |
| RRIRLRPPRLPRPRPRPAILPRP | 0.0331 |
| RRIRFRPPRLPRPRPRPFIWPRP | -0.312 |
| RRIRIRPPRLPRPRPRPLAVPRP | 0.097 |
| RRIRKRPPRLPRPRPRPHNCPRP | 0.0806 |
| RRIRTRPPRLPRPRPRPYSGPRP | -0.00196 |
| RRIRDRPPRLPRPRPRPGGNPRP | -0.0716 |
| RRIRHRPPRLPRPRPRPAIAPRP | 0.0527 |
| RRIRMRPPRLPRPRPRPSYCPRP | -0.236 |
| RRIRFRPPRLPRPRPRPCLSPRP | -0.0617 |
| RRIRVRPPRLPRPRPRPHSVPRP | -0.177 |
| RRIRGRPPRLPRPRPRPHLNPRP | 0.0325 |
| RRIRSRPPRLPRPRPRPHFAPRP | 0.0285 |
| RRIRPRPPRLPRPRPRPCRDPRP | 1.11 |
| RRIRYRPPRLPRPRPRPTCRPRP | -0.157 |
| RRIRVRPPRLPRPRPRPCSHPRP | -0.246 |
| RRIRGRPPRLPRPRPRPFMYPRP | 0.345 |
| RRIRGRPPRLPRPRPRPSTYPRP | -0.189 |
